Data on three molecules can be found in paper PMC3024946, “Hydroxyproline-containing collagen analogs trigger the release and activation of collagen-sequestered proMMP-2 by competition with prodomain-derived peptide P_(33-42)” (Fibrogenesis & Tissue Repair, 2011).

Experiment in all cases: radioligand binding; collagens, chains, fragments and peptides (2 μg/well or 200 ng/well) immobilised on polystyrene microtiter wells; 2 ng [125I]-MMP per well, 4°C, 2 h; washed with PBS, 0.05% Tween 20; residual radioactivity in a gamma counter
What all share (conditions): both partners purified

In assay [1] the target is human collagen type VI (CVI) (human, UniProt P12109 20-1028; P12110 21-1019; P12111 26-3177).
Assay [2] deals with T1, (GPP)10, H-Gly-Cys-Pro-(Gly-Pro-Pro)10-Gly-Cys-Pro-Gly-NH2 (C-terminal amide).
T1 construct: printed in three-letter code: H-Gly-Cys-Pro-(Gly-Pro-Pro)10-Gly-Cys-Pro-Gly-NH2; no hydroxyproline; Triple-helical by polarimetry (midpoint of melting 45.8 ± 0.8°C at 5 mg/ml); source: synthetic peptide

The target of assay [3] is T2, GAP, H-Gly-Ala-Cys-(Gly-Ala-Pro)5-Gly-Phe-Hyp-Gly-Glu-Arg-(Gly-Ala-Pro)5-NH2 (hydroxyproline (Hyp) at 21 (counted from the printed formula; written as P in letters); C-terminal amide).
T2 construct: printed in three-letter code: H-Gly-Ala-Cys-(Gly-Ala-Pro)5-Gly-Phe-Hyp-Gly-Glu-Arg-(Gly-Ala-Pro)5-NH2; Hyp written as P; Nonhelical even at 5°C by polarimetry; also called linear GAP; linear control peptide GAP; source: synthetic peptide
T2 peptide: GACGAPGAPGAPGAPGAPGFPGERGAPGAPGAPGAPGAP

Assay [4] addresses T3, α1 chain of collagen type I (α1(I)) (human, UniProt P02452 162-1218).
T3 construct: α1 chain of collagen type I, human, single chain isolated from CI; source: single chain obtained from purified human CI

Assay [5] deals with T4, α2 chain of collagen type I (α2(I)) (human, UniProt P08123 80-1119).
T4 construct: α2 chain of collagen type I, human, single chain isolated from CI; source: single chain obtained from purified human CI

Assay [6] addresses T5, (GPO)10, H-Gly-Cys-Hyp-(Gly-Pro-Hyp)10-Gly-Cys-Hyp-Gly-NH2 (hydroxyproline (Hyp) at 3, 6, 9, 12, 15, 18, 21, 24, 27, 30, 33 and 36 (counted from the printed formula; written as P in letters); C-terminal amide).
T5 construct: printed in three-letter code: H-Gly-Cys-Hyp-(Gly-Pro-Hyp)10-Gly-Cys-Hyp-Gly-NH2; Hyp written as P; Triple-helical by polarimetry (midpoint of melting 82.3 ± 1.4°C at 5 mg/ml); also called Gly-Pro-Hyp (GPO)10; source: synthetic peptide

Chain of human collagen type VI (CVI) (P12109 20-1028, chain 1 of 3): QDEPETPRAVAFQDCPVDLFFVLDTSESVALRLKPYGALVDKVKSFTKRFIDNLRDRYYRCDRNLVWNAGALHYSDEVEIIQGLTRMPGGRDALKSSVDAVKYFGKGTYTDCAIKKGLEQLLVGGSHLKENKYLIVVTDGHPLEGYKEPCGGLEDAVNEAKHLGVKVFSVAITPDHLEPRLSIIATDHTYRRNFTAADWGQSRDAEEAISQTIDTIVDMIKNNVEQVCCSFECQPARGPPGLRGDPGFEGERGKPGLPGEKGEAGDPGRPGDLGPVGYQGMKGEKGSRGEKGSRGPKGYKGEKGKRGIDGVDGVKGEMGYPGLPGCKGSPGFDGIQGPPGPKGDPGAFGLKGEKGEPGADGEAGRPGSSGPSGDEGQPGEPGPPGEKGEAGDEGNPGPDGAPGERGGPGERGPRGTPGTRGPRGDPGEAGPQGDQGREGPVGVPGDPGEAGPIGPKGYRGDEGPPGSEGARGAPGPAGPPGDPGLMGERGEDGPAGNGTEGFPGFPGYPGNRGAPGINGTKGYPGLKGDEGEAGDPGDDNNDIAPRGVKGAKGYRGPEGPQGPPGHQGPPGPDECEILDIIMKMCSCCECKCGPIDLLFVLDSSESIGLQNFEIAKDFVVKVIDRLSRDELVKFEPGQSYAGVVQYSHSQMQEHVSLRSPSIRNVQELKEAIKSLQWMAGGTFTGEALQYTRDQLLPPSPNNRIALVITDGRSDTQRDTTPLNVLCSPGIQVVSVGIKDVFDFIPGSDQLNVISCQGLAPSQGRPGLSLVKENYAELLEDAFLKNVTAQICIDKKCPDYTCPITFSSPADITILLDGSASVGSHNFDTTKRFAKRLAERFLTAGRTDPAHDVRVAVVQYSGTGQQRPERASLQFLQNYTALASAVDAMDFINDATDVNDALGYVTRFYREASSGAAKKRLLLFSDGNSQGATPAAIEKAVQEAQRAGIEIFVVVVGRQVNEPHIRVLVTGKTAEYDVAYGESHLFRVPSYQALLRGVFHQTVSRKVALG
Chain of human collagen type VI (CVI) (P12110 21-1019, chain 2 of 3): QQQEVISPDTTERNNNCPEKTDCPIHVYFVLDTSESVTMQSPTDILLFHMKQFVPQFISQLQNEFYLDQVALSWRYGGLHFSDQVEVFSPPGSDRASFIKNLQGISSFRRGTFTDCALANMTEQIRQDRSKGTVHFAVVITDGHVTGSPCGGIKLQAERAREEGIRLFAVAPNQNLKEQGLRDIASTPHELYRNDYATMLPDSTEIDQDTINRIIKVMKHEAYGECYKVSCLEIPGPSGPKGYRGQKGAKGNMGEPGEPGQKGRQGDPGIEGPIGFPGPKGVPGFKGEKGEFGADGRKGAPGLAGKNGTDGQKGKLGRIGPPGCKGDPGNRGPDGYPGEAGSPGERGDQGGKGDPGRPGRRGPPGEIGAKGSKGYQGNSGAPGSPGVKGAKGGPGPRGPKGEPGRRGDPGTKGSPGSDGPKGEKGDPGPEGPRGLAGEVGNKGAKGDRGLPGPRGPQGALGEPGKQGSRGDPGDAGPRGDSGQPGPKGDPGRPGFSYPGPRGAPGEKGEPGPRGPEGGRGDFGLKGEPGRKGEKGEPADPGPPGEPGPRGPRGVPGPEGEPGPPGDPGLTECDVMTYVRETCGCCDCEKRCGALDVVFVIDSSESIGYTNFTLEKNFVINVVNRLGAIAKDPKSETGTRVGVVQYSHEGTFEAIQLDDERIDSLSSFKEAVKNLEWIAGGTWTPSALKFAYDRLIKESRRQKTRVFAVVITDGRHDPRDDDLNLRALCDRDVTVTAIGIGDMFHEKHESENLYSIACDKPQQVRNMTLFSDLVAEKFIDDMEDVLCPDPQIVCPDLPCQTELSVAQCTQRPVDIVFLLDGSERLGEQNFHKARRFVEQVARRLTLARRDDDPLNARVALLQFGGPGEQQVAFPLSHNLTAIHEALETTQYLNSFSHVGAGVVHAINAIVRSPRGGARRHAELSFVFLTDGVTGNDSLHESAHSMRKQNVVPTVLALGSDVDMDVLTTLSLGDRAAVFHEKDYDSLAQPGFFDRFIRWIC
Chain of human collagen type VI (CVI) (P12111 26-3177, chain 3 of 3): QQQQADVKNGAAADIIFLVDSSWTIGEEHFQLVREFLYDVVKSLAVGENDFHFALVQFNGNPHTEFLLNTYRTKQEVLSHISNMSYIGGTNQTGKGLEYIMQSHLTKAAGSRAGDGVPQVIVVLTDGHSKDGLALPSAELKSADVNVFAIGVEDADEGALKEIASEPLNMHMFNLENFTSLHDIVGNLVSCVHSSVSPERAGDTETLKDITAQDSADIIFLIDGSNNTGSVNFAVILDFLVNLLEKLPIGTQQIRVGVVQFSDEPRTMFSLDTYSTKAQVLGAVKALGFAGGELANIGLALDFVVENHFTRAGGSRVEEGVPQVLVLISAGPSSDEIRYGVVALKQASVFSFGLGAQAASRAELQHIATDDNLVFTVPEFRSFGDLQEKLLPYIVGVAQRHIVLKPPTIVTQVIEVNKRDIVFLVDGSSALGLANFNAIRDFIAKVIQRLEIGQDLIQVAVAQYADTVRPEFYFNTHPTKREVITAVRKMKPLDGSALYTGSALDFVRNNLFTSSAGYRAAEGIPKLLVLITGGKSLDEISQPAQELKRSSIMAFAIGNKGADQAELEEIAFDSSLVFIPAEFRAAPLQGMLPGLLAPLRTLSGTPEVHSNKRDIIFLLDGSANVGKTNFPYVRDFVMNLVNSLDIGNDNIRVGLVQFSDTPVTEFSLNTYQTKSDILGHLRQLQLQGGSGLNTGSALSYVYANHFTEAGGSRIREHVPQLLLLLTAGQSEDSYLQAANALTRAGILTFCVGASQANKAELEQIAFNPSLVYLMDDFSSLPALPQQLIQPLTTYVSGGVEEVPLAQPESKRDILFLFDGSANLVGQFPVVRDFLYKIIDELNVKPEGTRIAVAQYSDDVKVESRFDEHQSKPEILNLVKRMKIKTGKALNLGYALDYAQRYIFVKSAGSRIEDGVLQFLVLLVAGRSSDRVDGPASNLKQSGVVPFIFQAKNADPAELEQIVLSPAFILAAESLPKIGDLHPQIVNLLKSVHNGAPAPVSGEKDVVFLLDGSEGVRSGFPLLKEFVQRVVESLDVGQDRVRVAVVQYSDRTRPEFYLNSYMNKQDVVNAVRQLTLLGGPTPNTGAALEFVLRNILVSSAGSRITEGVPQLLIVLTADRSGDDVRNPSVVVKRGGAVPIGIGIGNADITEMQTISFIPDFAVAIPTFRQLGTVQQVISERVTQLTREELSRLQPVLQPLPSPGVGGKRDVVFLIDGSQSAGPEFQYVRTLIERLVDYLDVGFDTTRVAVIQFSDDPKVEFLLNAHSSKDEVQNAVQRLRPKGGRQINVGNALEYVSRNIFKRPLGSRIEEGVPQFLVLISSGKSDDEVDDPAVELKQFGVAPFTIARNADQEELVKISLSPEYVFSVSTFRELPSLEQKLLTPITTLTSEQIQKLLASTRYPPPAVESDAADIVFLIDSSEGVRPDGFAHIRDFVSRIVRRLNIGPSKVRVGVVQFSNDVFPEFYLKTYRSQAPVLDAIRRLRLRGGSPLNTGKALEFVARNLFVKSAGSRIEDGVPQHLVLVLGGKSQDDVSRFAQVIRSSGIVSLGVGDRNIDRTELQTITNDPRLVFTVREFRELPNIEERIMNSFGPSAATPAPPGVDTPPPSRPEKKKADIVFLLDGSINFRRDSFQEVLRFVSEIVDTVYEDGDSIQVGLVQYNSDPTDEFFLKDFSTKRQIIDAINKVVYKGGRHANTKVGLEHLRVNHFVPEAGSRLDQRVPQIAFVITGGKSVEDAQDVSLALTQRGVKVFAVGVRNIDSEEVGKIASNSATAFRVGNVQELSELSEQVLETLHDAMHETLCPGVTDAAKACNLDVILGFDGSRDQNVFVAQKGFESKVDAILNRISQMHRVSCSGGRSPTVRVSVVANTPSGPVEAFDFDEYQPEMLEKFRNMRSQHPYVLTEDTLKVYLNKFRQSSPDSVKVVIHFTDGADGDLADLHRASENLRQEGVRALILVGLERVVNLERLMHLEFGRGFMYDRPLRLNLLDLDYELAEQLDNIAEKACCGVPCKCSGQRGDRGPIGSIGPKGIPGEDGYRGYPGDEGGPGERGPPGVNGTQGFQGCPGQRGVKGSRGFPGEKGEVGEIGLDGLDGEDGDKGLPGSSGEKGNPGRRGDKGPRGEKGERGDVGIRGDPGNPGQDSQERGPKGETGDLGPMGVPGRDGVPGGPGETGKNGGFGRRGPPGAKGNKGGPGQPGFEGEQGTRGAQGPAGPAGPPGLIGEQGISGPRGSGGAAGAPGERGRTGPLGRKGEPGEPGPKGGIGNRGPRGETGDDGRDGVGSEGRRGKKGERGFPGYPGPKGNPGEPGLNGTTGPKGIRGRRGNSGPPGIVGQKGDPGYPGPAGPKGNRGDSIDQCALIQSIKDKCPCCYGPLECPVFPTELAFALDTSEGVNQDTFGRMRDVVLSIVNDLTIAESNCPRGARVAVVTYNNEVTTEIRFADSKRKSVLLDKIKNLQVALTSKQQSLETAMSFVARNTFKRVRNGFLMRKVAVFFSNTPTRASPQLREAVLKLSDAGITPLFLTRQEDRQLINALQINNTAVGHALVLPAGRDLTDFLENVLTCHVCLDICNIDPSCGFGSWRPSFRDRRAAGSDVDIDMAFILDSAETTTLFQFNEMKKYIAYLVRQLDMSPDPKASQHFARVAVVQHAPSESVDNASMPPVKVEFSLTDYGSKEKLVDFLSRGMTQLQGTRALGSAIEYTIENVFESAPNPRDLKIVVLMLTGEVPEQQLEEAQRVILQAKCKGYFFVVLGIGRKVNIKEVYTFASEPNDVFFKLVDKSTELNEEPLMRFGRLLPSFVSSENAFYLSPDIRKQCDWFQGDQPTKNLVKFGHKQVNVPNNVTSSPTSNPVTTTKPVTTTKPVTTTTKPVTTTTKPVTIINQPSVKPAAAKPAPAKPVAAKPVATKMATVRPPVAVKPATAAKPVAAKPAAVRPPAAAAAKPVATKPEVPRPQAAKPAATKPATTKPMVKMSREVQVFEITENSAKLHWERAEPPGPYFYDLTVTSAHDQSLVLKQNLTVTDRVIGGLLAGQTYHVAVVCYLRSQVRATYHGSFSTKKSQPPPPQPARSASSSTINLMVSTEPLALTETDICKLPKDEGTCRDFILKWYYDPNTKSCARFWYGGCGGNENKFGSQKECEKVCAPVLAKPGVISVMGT

B1: actMMP-9 (86-kDa trypsin-activated form of matrix metalloproteinase-9) (enzyme)
chain: not shown
modifications: [125I]-Bolton-Hunter label in the solid-phase assays (dot blot, microwells); no label told for SPR and immunohistochemistry
notes: also called [125I]-actMMP-9; MMP-9 Act; source: bought: Invitek
In the case of B1, the “bound [125I]-MMP (% of the radiolabeled MMP added)” value in assay [1] amounted to 2.4%; in assay [2], 0.9%; in assay [3], 0.7%; in assay [4], 4.7%; in assay [5], 2.6%.

B2: proMMP-9 (92-kDa latent proform of matrix metalloproteinase-9) (enzyme, human, UniProt P14780 20-707, looked up)
chain: APRQRQSTLVLFPGDLRTNLTDRQLAEEYLYRYGYTRVAEMRGESKSLGPALLLLQKQLSLPETGELDSATLKAMRTPRCGVPDLGRFQTFEGDLKWHHHNITYWIQNYSEDLPRAVIDDAFARAFALWSAVTPLTFTRVYSRDADIVIQFGVAEHGDGYPFDGKDGLLAHAFPPGPGIQGDAHFDDDELWSLGKGVVVPTRFGNADGAACHFPFIFEGRSYSACTTDGRSDGLPWCSTTANYDTDDRFGFCPSERLYTQDGNADGKPCQFPFIFQGQSYSACTTDGRSDGYRWCATTANYDRDKLFGFCPTRADSTVMGGNSAGELCVFPFTFLGKEYSTCTSEGRGDGRLWCATTSNFDSDKKWGFCPDQGYSLFLVAAHEFGHALGLDHSSVPEALMYPMYRFTEGPPLHKDDVNGIRHLYGPRPEPEPRPPTTTTPQPTAPPTVCPTGPPTVHPSERPTAGPTGPPSAGPTGPPTAGPSTATTVPLSPVDDACNVNIFDAIAEIGNQLYLFKDGKYWRFSEGRGSRPQGPFLIADKWPALPRKLDSVFEERLSKKLFFFSGRQVWVYTGASVLGPRRLDKLGLGADVAQVTGALRSGRGKMLLFSGRRLWRFDVKAQMVDPRSASEVDRMFPGVPLDTHDVFQYREKAYFCQDRFYWRVSSRSELNQVDQVGYVTYDILQCPED
modifications: [125I]-Bolton-Hunter label in the solid-phase assays (dot blot, microwells); no label told for SPR and immunohistochemistry
notes: matrix metalloproteinase-9 (gelatinase B), human, recombinant 92-kDa prodomain-containing latent proform; Proenzyme with the prodomain; also called [125I]-proMMP-9; MMP-9 Pro; source: bought: Invitek (human recombinant)
B2: the “bound [125I]-MMP (% of the radiolabeled MMP added)” value in assay [1] was 12.3%; in assay [6], 36.1%; in assay [2], 4.9%; in assay [3] it was 1.3%; in assay [4], 37.6%; in assay [5], 21.8%.

B3: proMMP-2 (72-kDa latent proform of matrix metalloproteinase-2) (enzyme, human, UniProt P08253 30-660, looked up)
chain: APSPIIKFPGDVAPKTDKELAVQYLNTFYGCPKESCNLFVLKDTLKKMQKFFGLPQTGDLDQNTIETMRKPRCGNPDVANYNFFPRKPKWDKNQITYRIIGYTPDLDPETVDDAFARAFQVWSDVTPLRFSRIHDGEADIMINFGRWEHGDGYPFDGKDGLLAHAFAPGTGVGGDSHFDDDELWTLGEGQVVRVKYGNADGEYCKFPFLFNGKEYNSCTDTGRSDGFLWCSTTYNFEKDGKYGFCPHEALFTMGGNAEGQPCKFPFRFQGTSYDSCTTEGRTDGYRWCGTTEDYDRDKKYGFCPETAMSTVGGNSEGAPCVFPFTFLGNKYESCTSAGRSDGKMWCATTANYDDDRKWGFCPDQGYSLFLVAAHEFGHAMGLEHSQDPGALMAPIYTYTKNFRLSQDDIKGIQELYGASPDIDLGTGPTPTLGPVTPEICKQDIVFDGIAQIRGEIFFFKDRFIWRTVTPRDKPMGPLLVATFWPELPEKIDAVYEAPQEEKAVFFAGNEYWIYSASTLERGYPKPLTSLGLPPDVQRVDAAFNWSKNKKTYIFAGDKFWRYNEVKKKMDPGFPKLIADAWNAIPDNLDAVVDLQGGGHSYFFKGAYYLKLENQSLKSVKFGSIKSDWLGC
modifications: [125I]-Bolton-Hunter label in the solid-phase assays (dot blot, microwells); Cy2 label in the tissue release experiment; no label told for SPR and immunohistochemistry
notes: matrix metalloproteinase-2 (gelatinase A), human, recombinant 72-kDa prodomain-containing latent proform; Proenzyme with the prodomain; also called [125I]-proMMP-2; Cy2-proMMP-2; source: bought: Invitek (human recombinant)
Turning to B3, the “bound [125I]-MMP (% of the radiolabeled MMP added)” value in assay [1] was determined as 14.1%; in assay [6], 13%; in assay [2], 3.6%; in assay [3], 1.7%; in assay [4], 36%; in assay [5], 30.2%.
